The target in series [1] is TFPI (source not stated; Examples 8, 12 and 45), P10646.
Series [2] addresses recombinant human TFPI purified from a cell line from Novo Nordisk.

Chain of TFPI (source not stated; Examples 8, 12 and 45), P10646 (P10646 whole entry, looked up): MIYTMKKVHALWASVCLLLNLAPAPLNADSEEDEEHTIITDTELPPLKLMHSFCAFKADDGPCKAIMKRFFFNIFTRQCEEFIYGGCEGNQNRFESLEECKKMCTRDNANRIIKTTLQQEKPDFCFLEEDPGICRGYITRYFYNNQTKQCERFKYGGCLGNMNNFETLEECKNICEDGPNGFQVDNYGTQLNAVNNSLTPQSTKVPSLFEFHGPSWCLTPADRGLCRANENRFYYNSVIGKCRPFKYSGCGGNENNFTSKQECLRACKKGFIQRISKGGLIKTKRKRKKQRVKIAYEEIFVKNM

B1: tissue factor:Factor VIIa complex (sources not stated; Examples 8 and 12) (protein)
chain 1: SGTTNTVAAYNLTWKSTNFKTILEWEPKPVNQVYTVQISTKSGDWKSKCFYTTDTECDLTDEIVKDVKQTYLARVFSYPAGNVESTGSAGEPLYENSPEFTPYLETNLGQPTIQSFEQVGTKVNVTVEDERTLVRRNNTFLSLRDVFGKDLIYTLYYWKSSSSGKKTAKTNTNEFLIDVDKGENYCFSVQAVIPSRTVNRKSTDSPVECMGQEKGEFREIFYIIGAVVFVVIILVIILAISLHKCRKAGVGQSWKENSPLNVS
chain 2: ANAFLEELRPGSLERECKEEQCSFEEAREIFKDAERTKLFWISYSDGDQCASSPCQNGGSCKDQLQSYICFCLPAFEGRNCETHKDDQLICVNENGGCEQYCSDHTGTKRSCRCHEGYSLLADGVSCTPTVEYPCGKIPILEKRNASKPQGR
chain 3: IVGGKVCPKGECPWQVLLLVNGAQLCGGTLINTIWVVSAAHCFDKIKNWRNLIAVLGEHDLSEHDGDEQSRRVAQVIIPSTYVPGTTNHDIALLRLHQPVVLTDHVVPLCLPERTFSERTLAFVRFSLVSGWGQLLDRGATALELMVLNVPRLMTQDCLQQSRKVGDSPNITEYMFCAGYSDGSKDSCKGDSGGPHATHYRGTWYLTGIVSWGQGCATVGHFGVYTRVSQYIEWLQKLMRSEPRPGVLLRAPFP
As for B1, in series [1], the “TF:FVIIa activity, hydrolysis of fluorogenic substrate SN-17c; 8 nM TFPI” value was “TFPI inhibited approximately 50% of TF:FVIIa activity under these conditions” and the “rate of FXa generation in the extrinsic tenase (Xase) assay (chromogenic FXa substrate, A405), normalised at 4 minutes; 1 nM TFPI” value is “TFPI reduced the rate of FXa generation at 4 minutes by nearly 70%”.

B2: extrinsic Xase complex: re-lipidated recombinant human tissue factor (Innovin) and factor VIIa (Enzyme Research Laboratories) (protein)
chain 1: SGTTNTVAAYNLTWKSTNFKTILEWEPKPVNQVYTVQISTKSGDWKSKCFYTTDTECDLTDEIVKDVKQTYLARVFSYPAGNVESTGSAGEPLYENSPEFTPYLETNLGQPTIQSFEQVGTKVNVTVEDERTLVRRNNTFLSLRDVFGKDLIYTLYYWKSSSSGKKTAKTNTNEFLIDVDKGENYCFSVQAVIPSRTVNRKSTDSPVECMGQEKGEFREIFYIIGAVVFVVIILVIILAISLHKCRKAGVGQSWKENSPLNVS
chain 2: ANAFLEELRPGSLERECKEEQCSFEEAREIFKDAERTKLFWISYSDGDQCASSPCQNGGSCKDQLQSYICFCLPAFEGRNCETHKDDQLICVNENGGCEQYCSDHTGTKRSCRCHEGYSLLADGVSCTPTVEYPCGKIPILEKRNASKPQGR
chain 3: IVGGKVCPKGECPWQVLLLVNGAQLCGGTLINTIWVVSAAHCFDKIKNWRNLIAVLGEHDLSEHDGDEQSRRVAQVIIPSTYVPGTTNHDIALLRLHQPVVLTDHVVPLCLPERTFSERTLAFVRFSLVSGWGQLLDRGATALELMVLNVPRLMTQDCLQQSRKVGDSPNITEYMFCAGYSDGSKDSCKGDSGGPHATHYRGTWYLTGIVSWGQGCATVGHFGVYTRVSQYIEWLQKLMRSEPRPGVLLRAPFP
As to B2, the “FXa generation by the extrinsic Xase (chromogenic FXa substrate); 2 nM TFPI” value in series [2] is listed as “curve #6 shows that TFPI shuts down Xa generation in the absence of ARC19499”.

B3: Factor Xa (source not stated; Example 45) (protein)
chain 1: ANSFLEEMKKGHLERECMEETCSYEEAREVFEDSDKTNEFWNKYKDGDQCETSPCQNQGKCKDGLGEYTCTCLEGFEGKNCELFTRKLCSLDNGDCDQFCHEEQNSVVCSCARGYTLADNGKACIPTGPYPCGKQTLER
chain 2: IVGGQECKDGECPWQALLINEENEGFCGGTILSEFYILTAAHCLYQAKRFKVRVGDRNTEQEEGGEAVHEVEVVIKHNRFTKETYDFDIAVLRLKTPITFRMNVAPACLPERDWAESTLMTQKTGIVSGFGRTHEKGRQSTRLKMLEVPYVDRNSCKLSSSFIITQNMFCAGYDTKQEDACQGDSGGPHVTRFKDTYFVTGIVSWGEGCARKGKYGIYTKVTAFLKWIDRSMKTRGLPKAKSHAPEVITSSPLK
In the case of B3, in series [1], the “FXa (1 nM) cleavage of chromogenic substrate S-2765, substrate added last” value was “In the presence of ≧8 nM TFPI, inhibition is nearly complete under these conditions and little product is formed”.

B4: Factor Xa (Enzyme Research Laboratories) (protein)
chain 1: ANSFLEEMKKGHLERECMEETCSYEEAREVFEDSDKTNEFWNKYKDGDQCETSPCQNQGKCKDGLGEYTCTCLEGFEGKNCELFTRKLCSLDNGDCDQFCHEEQNSVVCSCARGYTLADNGKACIPTGPYPCGKQTLER
chain 2: IVGGQECKDGECPWQALLINEENEGFCGGTILSEFYILTAAHCLYQAKRFKVRVGDRNTEQEEGGEAVHEVEVVIKHNRFTKETYDFDIAVLRLKTPITFRMNVAPACLPERDWAESTLMTQKTGIVSGFGRTHEKGRQSTRLKMLEVPYVDRNSCKLSSSFIITQNMFCAGYDTKQEDACQGDSGGPHVTRFKDTYFVTGIVSWGEGCARKGKYGIYTKVTAFLKWIDRSMKTRGLPKAKSHAPEVITSSPLK
Consider B4, for which, in series [2], the “FXa (0.2 nM) cleavage of chromogenic substrate Pefachrome FXa 5523; 2 nM TFPI” value was “When TFPI and the chromogenic substrate were added to FXa at the same time, the rate of substrate cleavage decreased gradually as FXa was inhibited by TFPI”.

B5: prothrombinase complex: factor Xa (Enzyme Research Laboratories) and factor Va (Haematologic Technologies) on phospholipid membrane (protein)
chain 1: ANSFLEEMKKGHLERECMEETCSYEEAREVFEDSDKTNEFWNKYKDGDQCETSPCQNQGKCKDGLGEYTCTCLEGFEGKNCELFTRKLCSLDNGDCDQFCHEEQNSVVCSCARGYTLADNGKACIPTGPYPCGKQTLER
chain 2: IVGGQECKDGECPWQALLINEENEGFCGGTILSEFYILTAAHCLYQAKRFKVRVGDRNTEQEEGGEAVHEVEVVIKHNRFTKETYDFDIAVLRLKTPITFRMNVAPACLPERDWAESTLMTQKTGIVSGFGRTHEKGRQSTRLKMLEVPYVDRNSCKLSSSFIITQNMFCAGYDTKQEDACQGDSGGPHVTRFKDTYFVTGIVSWGEGCARKGKYGIYTKVTAFLKWIDRSMKTRGLPKAKSHAPEVITSSPLK
chain 3: AQLRQFYVAAQGISWSYRPEPTNSSLNLSVTSFKKIVYREYEPYFKKEKPQSTISGLLGPTLYAEVGDIIKVHFKNKADKPLSIHPQGIRYSKLSEGASYLDHTFPAEKMDDAVAPGREYTYEWSISEDSGPTHDDPPCLTHIYYSHENLIEDFNSGLIGPLLICKKGTLTEGGTQKTFDKQIVLLFAVFDESKSWSQSSSLMYTVNGYVNGTMPDITVCAHDHISWHLLGMSSGPELFSIHFNGQVLEQNHHKVSAITLVSATSTTANMTVGPEGKWIISSLTPKHLQAGMQAYIDIKNCPKKTRNLKKITREQRRHMKRWEYFIAAEEVIWDYAPVIPANMDKKYRSQHLDNFSNQIGKHYKKVMYTQYEDESFTKHTVNPNMKEDGILGPIIRAQVRDTLKIVFKNMASRPYSIYPHGVTFSPYEDEVNSSFTSGRNNTMIRAVQPGETYTYKWNILEFDEPTENDAQCLTRPYYSDVDIMRDIASGLIGLLLICKSRSLDRRGIQRAADIEQQAVFAVFDENKSWYLEDNINKFCENPDEVKRDDPKFYESNIMSTINGYVPESITTLGFCFDDTVQWHFCSVGTQNEILTIHFTGHSFIYGKRHEDTLTLFPMRGESVTVTMDNVGTWMLTSMNSSPRSKKLRLKFRDVKCIPDDDEDSYEIFEPPESTVMATRKMHDRLEPEDEESDADYDYQNRLAAALGIR
chain 4: SNNGNRRNYYIAAEEISWDYSEFVQRETDIEDSDDIPEDTTYKKVVFRKYLDSTFTKRDPRGEYEEHLGILGPIIRAEVDDVIQVRFKNLASRPYSLHAHGLSYEKSSEGKTYEDDSPEWFKEDNAVQPNSSYTYVWHATERSGPESPGSACRAWAYYSAVNPEKDIHSGLIGPLLICQKGILHKDSNMPMDMREFVLLFMTFDEKKSWYYEKKSRSSWRLTSSEMKKSHEFHAINGMIYSLPGLKMYEQEWVRLHLLNIGGSQDIHVVHFHGQTLLENGNKQHQLGVWPLLPGSFKTLEMKASKPGWWLLNTEVGENQRAGMQTPFLIMDRDCRMPMGLSTGIISDSQIKASEFLGYWEPRLARLNNGGSYNAWSVEKLAAEFASKPWIQVDMQKEVIITGIQTQGAKHYLKSCYTTEFYVAYSSNQINWQIFKGNSTRNVMYFNGNSDASTIKENQFDPPIVARYIRISPTRAYNRPTLRLELQGCEVNGCSTPLGMENGKIENKQITASSFKKSWWGDYWEPFRARLNAQGRVNAWQAKANNNKQWLEIDLLKIKKITAIITQGCKSLSSEMYVKSYTIHYSEQGVEWKPYRLKSSMVDKIFEGNTNTKGHVKNFFNPPIISRFIRVIPKTWNQSIALRLELFGCDIY
For the protein B5, in series [2], the prothrombinase activity (thrombin generation from prothrombin, chromogenic thrombin substrate); 1 nM TFPI (fraction of activity) came to 0.33.

For the origin of these results see US20120190834A1.
